Results on 84 variants are retold here after the RNAGym collection of RNA variant scans (doi:10.1093/molbev/msab373).

B1: Azoarcus group I ribozyme (parent)
chain: GUGCCUUGCGCCGGGAAACCACGCAAGGGAUGGUGUCAAAUUCGGCGAAACCUAAGCGCCCGCCCGGGCGUAUGGCAACGCCGAGCCAAGCUUCGGCGCCUGCGCCGAUGAAGGUGUAGAGACUAGACGGCACCCACCUAAGGCAAACGCUAUGGUGAAGGCAUAGUCCAGGGAGUGGCGAAAGUCACACAAACCGG

The variants in this data set derive from B1. As to the kind of experiment: reverse-splicing fitness (ratio to wild type); higher = more active; in vitro selection; Mg2+ level not given. Summed up: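 An in vitro group I ribozyme library with randomized positions was T7-transcribed and gel-purified. In triplicate, 10 pmol RNA in EPPS pH 7.5 was reacted with 50 pmoles of a 30-nt RNA substrate for 1 h at 37 °C across several added MgCl2 levels (1–48 mM), then stopped with EDTA. Products were reverse transcribed from a substrate-complementary primer, PCR-amplified and sequenced (HiSeq 4000). Fitness is a variant's read proportion after selection over that before, normalised to wild type.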
Take A111C A120G A145U C150U C169U U176G: the reverse-splicing fitness amounted to 0.00595.
For A111C A120U C150G C169A U176C the value was 0.00504; for A111C A120U C150G C169A U176A, 0.00683.
In the case of A111C A120U C150G C169A U176G it was 0.00363; in that of A111C A120U A145C C150U C169A, 0.00231.
In the case of A111C A120U A145C C150U C169U it was 0.0171.
A111C A120U A145C C150U C169G: the reverse-splicing fitness is 0.0128.
For A111C A120U A145U U176G the value was 0.0748.
For A111C A120U A145U U176A the value was 0.221.
In the case of A111C A120U A145U U176C it was 0.271; in that of A111C A120G A145U C150U C169A U176C, 0.0175; in that of A111C A120G A145U C150U C169A U176G, 0.00499.
For the variant A111C A120U A145U C150A C169G U176A, the reverse-splicing fitness amounted to 0.00295.
Take A111C A120U A145U C150A C169G U176C: the reverse-splicing fitness was 0.00388.
In the case of A111C A120U A145U C150A C169G U176G, the reverse-splicing fitness was 0.00199.
For A111C A120U C150U C169U U176G the value was 0.00319.
In the case of A111C A120U C150U C169U U176A, the reverse-splicing fitness was 0.0122.
For A111C A120U C150U C169U U176C the value was 0.0116.
For A111C A120U A145G C150G U176A the value was 0.0151; for A111C A120U A145G C150G U176C, 0.0349; for A111C A120U A145G C150G U176G, 0.00515.
With A111C A120G A145U C169A, the reverse-splicing fitness turned out to be 0.128.
For A111C A120G A145U C169G the value was 0.203; for A111C A120G A145U C169U, 0.174.
Take A111C A120U A145G C169G U176C: the reverse-splicing fitness is 0.0098.
For A111C A120U A145G C169G U176A, the reverse-splicing fitness was determined as 0.0064.
For A111C A120U A145G C169G U176G the value was 0.00174.
As for A111C A120U A145U C150G U176C, the reverse-splicing fitness turned out to be 0.0313.
On to A111C A120U A145U C150G U176G, for which the reverse-splicing fitness was found to be 0.00462.
A111C A120U A145U C150G U176A: the reverse-splicing fitness was determined as 0.0214.
For the variant A111C A120U C150U C169G U176G, the reverse-splicing fitness was determined as 0.00251.
Regarding A111C A120U C150U C169G U176C, the reverse-splicing fitness amounted to 0.00812.
In the case of A111C A120U C150U C169G U176A, the reverse-splicing fitness was determined as 0.00676.
A111C A120U C150G C169U U176G: the reverse-splicing fitness is 0.00276.
For A111C A120U C150G C169U U176C the value was 0.00564; for A111C A120U C150G C169U U176A, 0.00446; for A111C A120U C150U C169A U176G, 0.00204.
In the case of A111C A120U C150U C169A U176C it was 0.00309; in that of A111C A120U C150U C169A U176A, 0.00394; in that of A111C A120U A145U C150G C169G U176C, 0.00291.
For the variant A111C A120U A145U C150G C169G U176A, the reverse-splicing fitness turned out to be 0.00267.
For A111C A120U A145U C150G C169G U176G the value was 0.00233.
For A111C A120U A145U C150A U176G the value was 0.0123.
In the case of A111C A120U A145U C150A U176C it was 0.0354.
For the variant A111C A120U A145U C150A U176A, the reverse-splicing fitness was 0.0343.
For A111C A120U A145G C169A the value was 0.00474; for A111C A120U A145G C169U, 0.0781; for A111C A120U A145G C169G, 0.0583.
Turning to A111C A120G C150G C169A, the reverse-splicing fitness stood at 0.0136.
In the case of A111C A120G C150G C169G it was 0.0183; in that of A111C A120G C150G C169U, 0.0177; in that of A111C A120U A145U C169G U176A, 0.00434.
Turning to A111C A120U A145U C169G U176G, the reverse-splicing fitness came to 0.00209.
As for A111C A120U A145U C169G U176C, the reverse-splicing fitness was determined as 0.00935.
On to A111C A120U A145G C150U, for which the reverse-splicing fitness was 0.549.
In the case of A111C A120U A145G C150A it was 0.099.
In the case of A111C A120U A145G C150G it was 0.0721.
For A111C A120U A145G C150U U176G the value was 0.0303; for A111C A120U A145G C150U U176C, 0.239; for A111C A120U A145G C150U U176A, 0.184.
For A111C A120G C150A C169A U176A, the reverse-splicing fitness is 0.0174.
Turning to A111C A120G C150A C169A U176C, the reverse-splicing fitness was found to be 0.023.
For A111C A120G C150A C169A U176G the value was 0.00594; for A111C A120G C150G C169A U176C, 0.0109; for A111C A120G C150G C169A U176A, 0.00971.
In the case of A111C A120G C150G C169A U176G it was 0.00481.
With A111C A120U A145C U176C, the reverse-splicing fitness was found to be 0.17.
For A111C A120U A145C U176A the value was 0.244.
For the variant A111C A120U A145C U176G, the reverse-splicing fitness worked out at 0.0856.
For A111C A120U C150G C169U the value was 0.00955; for A111C A120U C150G C169A, 0.00675.
Consider A111C A120U C150G C169G, for which the reverse-splicing fitness came to 0.00853.
For A111C A120U A145G C150A C169A U176A the value was 0.0071; for A111C A120U A145G C150A C169A U176G, 0.00318.
For A111C A120U A145G C150A C169A U176C the value was 0.00438; for A111C A120U C150G C169G U176C, 0.0039; for A111C A120U C150G C169G U176A, 0.00481.
In the case of A111C A120U C150G C169G U176G, the reverse-splicing fitness is 0.00234.
On to A111C A120U A145G, for which the reverse-splicing fitness was 0.675.
As for A111C A120U A145U, the reverse-splicing fitness was found to be 0.629.
For A111C A120U A145C the value was 0.598.
A111C A120U A145C C169A: the reverse-splicing fitness amounted to 0.00529.
For A111C A120U A145C C169U the value was 0.0701.
For A111C A120U A145C C169G, the reverse-splicing fitness was 0.0517.
